Laboratory results: patent US20140017242A1, “ANTI-BRADYKININ B2 RECEPTOR (BKB2R) MONOCLONAL ANTIBODY” (Diamedica, Inc., priority 2010, published 2014)

Experiments:
ZDF fa/fa rats = assay: 21-day ZDF fa/fa study: oral glucose tolerance test (blood glucose, plasma insulin); assay type: in vivo, rat; conditions: day 21
Description: Animals. Male ZDF fa/fa rats were obtained from CRL (Kingston, N.Y.). Upon arrival, rats were seven weeks of age. The rats were housed individually per cage in a room with a photo cycle of 12 hours of light and 12 hours of dark and an ambient temperature of 70-72° F. and fed on regular rodent diet and water ad libitum. At the age of eleven weeks, rats were divided into six groups (Table 5) of eight rats per group based on fasting blood glucose levels. A sub-group of four rats per group was maintained in parallel to the main groups and was dosed similarly for twenty-one days for a hyperinsulinemic-euglycemic clamp study. […]
An oral glucose tolerance test (OGTT) was performed on Day 0, 7, 14 and 21 for each group of the study. Plasma samples were collected at each time point during OGTT to also measure insulin levels. Body weight, food and water intake were measured twice a week. Blood pressure and heart rates were monitored on Day 0, 7, 14 and 21 using a non-invasive tail cuff method (with five readings per rat taken and then averaged). Fasting serum samples were collected on Day 0, 7, 14 and 21 before OGTT for determination of triglyceride and total cholesterol level. Urine samples were collected on Day 7 and 14 for the determination of glycosuria. Glycated (Glycosylated) hemoglobin (HbA1c) was measured at the end of the study. Assay kits for these studies were as presented in Table 6, and were used according to the suppliers' instructions.
OGTTs were performed on Day 0, 7, 14 and Day 21. Rats were fasted overnight and fasted blood glucose levels were measured (t=0 min), and then each rat was given a single 1.5 ml dose of glucose solution (2 g/kg body weight of D-(+)-glucose (G7528, Sigma) solubilized in deionized water) administered by oral gavage. […] At each time point of an OGGT approximately 50-60 μl of blood were collected and processed for plasma to measure insulin levels.
Plasma Collection. On days 0, 7, 14 and 21 during an OGTT test, blood samples were collected from the rats at each time point (0, 15, 30, 60, 90 and 120 minutes) into tubes containing lithium heparin (BD Biosciences, USA) by tail nip and kept on ice. The samples were then centrifuged at 4° C. for plasma separation and the plasma supernatants were transferred into 0.5 ml Eppendorf™ tubes by pipette and stored at −80° C. for the analysis of insulin levels.

BxPC-3 = assay: MTT Cell Proliferation Assay, BxPC-3; assay type: cell-based, human; conditions: 120 hours of exposure
Text: This Example describes characterization of the cytotoxic activity of herein described anti-BKB2R monoclonal antibodies against a panel of cancer cell lines. BxPC-3 is a human adenocarcinoma cell line originally isolated from the pancreas (pancreatic cancer) (ATCC # CRL-1687; Tan et al., Cancer Invest. 4: 15-23, 1986. PubMed: 3754176). MV-4-11 is a human biphenotypic B myelomonocytic leukemia (mixed-lineage leukemia, MLL-AF4) cell line originally isolated from the peripheral blood (ATCC # CRL-959; Lange et al., Blood 70: 192-199, 1987. PubMed: 3496132). Hep G2 is a human hepatocellular carcinoma cell line isolated from the liver (liver cancer) (ATCC # HB-8065; Aden et al., Nature 282: 615-616, 1979. PubMed: 233137). RS4;11 is a human acute lymphoblastic leukemia (mixed-lineage leukemia, MLL-AF4) cell line isolated from the bone marrow (ATTC # CRL-1873) Stong et al., Blood 65: 21-31, 1985. PubMed: 3917311). HT-29 is a human colorectal adenocarcinoma (ATTC # HTB-38) cell line isolated from the colon (colon cancer). Fogh et al., J. Natl. Cancer Inst. 58: 209-214, 1977. PubMed: 833871). NUGC-4 is a human stomach carcinoma isolated from the stomach paragastiric lymph node (JCRB # JCRB0834; Akiyama et al., Jpn. J. Surg., 18: 438-446, 1988). […]
The anti-proliferative activity of test compounds against the indicated cell lines was evaluated in vitro using the ATCC's MTT Cell Proliferation Assay (Catalog No. 30-1010K). After the 120 hour incubation with drug (e.g., anti-BKB2R mAb or cisplatin), cell proliferation was measured by addition of MTT reagent to each well and incubation for an additional 4 hrs. […] Optical absorbance (570 nm) of the test wells was measured and then quantitated relative to control wells that received no drug. Results were expressed as percent inhibition versus compound concentration and graphed, as shown in FIGS. 19-25, for cell lines BxPC-3, MV-4;11, HepG2, RS-4;11, HT-29, NUGC-4, and PC-3, respectively.

B1: 5F12G1: murine monoclonal anti-BKB2R antibody (IgG2b,κ), VH comprising SEQ ID NO:1, VL comprising SEQ ID NO:2 (antibody, listed as Mus musculus, V domains shown)
VH: EVKLEESGGGLVQPGGSMKLSCVVSGFTFSDYWMSWVRHSPEMGLEWVAEIRLKSDNYATHYAESVKGRFTISRDDSKSRLYLQINSLRGEDTGIYYCTRDYYAMEYWGQGTSVTVSS
VL: DVVMTQTPLSLPVSLGDQASISCRSSQTIVHSNGKTYLEWYLQKPGQSPKLLIYKVSNRFSGVPDRFSGSGSGTEFTLKISRVETEDLGVYYCFQASHVPYTFGGGTKLEIK
blood glucose level at the start of the OGTT (ZDF fa/fa rats; 0.008 mg/kg s.c. every 3 days): 190 ± 40 mg/dL
fasting insulin level (ZDF fa/fa rats; 0.008 mg/kg s.c. every 3 days): 14 ± 3 ng/mL
insulin level at 15 minutes of the OGTT (ZDF fa/fa rats; 0.008 mg/kg s.c. every 3 days): 24 ± 6 ng/mL
blood glucose level at 30 minutes of the OGTT (peak) (ZDF fa/fa rats; 0.04 mg/kg s.c. every 3 days): 355 mg/dL
blood glucose level at the start of the OGTT (ZDF fa/fa rats; 0.04 mg/kg s.c. every 3 days): 163 ± 40 mg/dL
fasting insulin level (ZDF fa/fa rats; 0.04 mg/kg s.c. every 3 days): 12 ± 3 ng/mL
insulin level at 15 minutes of the OGTT (ZDF fa/fa rats; 0.04 mg/kg s.c. every 3 days): 26 ± 3 ng/mL
AUC of blood glucose during OGTT (ZDF fa/fa rats; 0.2 mg/kg s.c. every 3 days): 33241.13 ± 3910.62 mg/dL (min)
blood glucose level at 30 minutes of the OGTT (peak) (ZDF fa/fa rats; 0.2 mg/kg s.c. every 3 days): 312 mg/dL
blood glucose level at the start of the OGTT (ZDF fa/fa rats; 0.2 mg/kg s.c. every 3 days): 150 ± 20 mg/dL
fasting insulin level (ZDF fa/fa rats; 0.2 mg/kg s.c. every 3 days): 17 ± 5 ng/mL
insulin level at 15 minutes of the OGTT (ZDF fa/fa rats; 0.2 mg/kg s.c. every 3 days): 30 ± 7 ng/mL
blood glucose level at 30 minutes of the OGTT (peak) (ZDF fa/fa rats; 0.008 s.c. every 3 days): 400 mg/dL
EC 50 Values (ng/ml) BxPC-3 (BxPC-3): 23000 ng/mL
